Experimental findings from IntAct's records for PubMed 23125415 are described below.

The labels stand for the following.
B1: Fractalkine (Homo sapiens), P78423 (parent)
chain: MAPISLSWLLRLATFCHLTVLLAGQHHGVTKCNITCSKMTSKIPVALLIHYQQNQASCGKRAIILETRQHRLFCADPKEQWVKDAMQHLDRQAAALTRNGGTFEKQIGEVKPRTTPAAGGMDESVVLEPEATGESSSLEPTPSSQEAQRALGTSPELPTGVTGSSGTRLPPTPKAQDGGPVGTELFRVPPVSTAATWQSSAPHQPGPSLWAEAKTSEAPSTQDPSTQASTASSPAPEENAPSEGQRVWGQGQSPRPENSLEREEMGPVPAHTDAFQDWGPGSMAHVSVVPVSSEGTPSREPVASGSWTPKAEEPIHATMDPQRLGVLITPVPDAQAATRRQAVGLLAFLGLLFCLGVAMFTYQSLQGCPRKMAGEMAEGLRYIPRSCGSNSYVLVPV

The variants in this assay derive from B1. Particulars: with cx3c1_human CX3CR1, P49238.
Chain of cx3c1_human CX3CR1, P49238 (P49238 whole entry): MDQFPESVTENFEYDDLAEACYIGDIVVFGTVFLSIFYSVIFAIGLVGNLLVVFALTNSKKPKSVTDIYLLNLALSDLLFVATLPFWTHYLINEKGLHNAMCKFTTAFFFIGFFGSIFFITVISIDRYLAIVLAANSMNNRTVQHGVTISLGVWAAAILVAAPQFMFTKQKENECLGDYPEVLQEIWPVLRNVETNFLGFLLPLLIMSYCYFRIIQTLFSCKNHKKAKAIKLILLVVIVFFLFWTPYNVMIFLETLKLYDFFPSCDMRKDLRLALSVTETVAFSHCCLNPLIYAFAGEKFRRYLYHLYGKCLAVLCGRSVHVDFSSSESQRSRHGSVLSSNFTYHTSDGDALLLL
As to MAPISLSWLLRLATFCHLTVLLAGQHHGVTKCNITCSKMTSKIPVALLIHYQQNQASCGKRAIILETRQHALFCADPKEQWVKDAMQHLDRQAAALTRNGGTFEKQIGEVKPRTTPAAGGMDESVVLEPEATGESSSLEPTPSSQEAQRALGTSPELPTGVTGSSGTRLPPTPKAQDGGPVGTELFRVPPVSTAATWQSSAPHQPGPSLWAEAKTSEAPSTQDPSTQASTASSPAPEENAPSEGQRVWGQGQSPRPENSLEREEMGPVPAHTDAFQDWGPGSMAHVSVVPVSSEGTPSREPVASGSWTPKAEEPIHATMDPQRLGVLITPVPDAQAATRRQAVGLLAFLGLLFCLGVAMFTYQSLQGCPRKMAGEMAEGLRYIPRSCGSNSYVLVPV [R71A], the “effect of a mutation on the interaction” value is given as “disrupting interaction strength”. As to MAPISLSWLLRLATFCHLTVLLAGQHHGVTKCNITCSKMTSKIPVALLIHYQQNQASCGAAAIILETRQHRLFCADPKEQWVKDAMQHLDRQAAALTRNGGTFEKQIGEVKPRTTPAAGGMDESVVLEPEATGESSSLEPTPSSQEAQRALGTSPELPTGVTGSSGTRLPPTPKAQDGGPVGTELFRVPPVSTAATWQSSAPHQPGPSLWAEAKTSEAPSTQDPSTQASTASSPAPEENAPSEGQRVWGQGQSPRPENSLEREEMGPVPAHTDAFQDWGPGSMAHVSVVPVSSEGTPSREPVASGSWTPKAEEPIHATMDPQRLGVLITPVPDAQAATRRQAVGLLAFLGLLFCLGVAMFTYQSLQGCPRKMAGEMAEGLRYIPRSCGSNSYVLVPV [K60A;R61A], the “effect of a mutation on the interaction” value is on record as “with no effect”.
